Reference: publication PMC5095531

Target: T1, native human lipocalin 2 (LCN2) (human), P80188
T1 chain: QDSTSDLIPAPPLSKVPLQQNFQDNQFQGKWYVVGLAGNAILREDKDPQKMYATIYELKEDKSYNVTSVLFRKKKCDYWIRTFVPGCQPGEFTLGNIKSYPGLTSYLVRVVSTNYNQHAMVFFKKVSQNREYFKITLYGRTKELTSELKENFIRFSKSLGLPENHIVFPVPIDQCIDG
Experiment: non-reducing SDS-PAGE with immunoblot; purified proteins in vitro, non-reducing conditions, anti-human LCN2 antibodies; monomer about 20 kDa, dimer about 40 kDa
Conditions: remark: other sources report otherwise

B1: native human lipocalin 2 (LCN2), P80188-1 21-198 (natural protein)
chain: T1 chain
  stoichiometry N: 2
